Laboratory results reported in publication PMC4254552 (Developmental cell, 2014).

T1: HIM-3-6His (C. elegans, UniProt G5EBG0 1-291)
T1 sequence (looked up): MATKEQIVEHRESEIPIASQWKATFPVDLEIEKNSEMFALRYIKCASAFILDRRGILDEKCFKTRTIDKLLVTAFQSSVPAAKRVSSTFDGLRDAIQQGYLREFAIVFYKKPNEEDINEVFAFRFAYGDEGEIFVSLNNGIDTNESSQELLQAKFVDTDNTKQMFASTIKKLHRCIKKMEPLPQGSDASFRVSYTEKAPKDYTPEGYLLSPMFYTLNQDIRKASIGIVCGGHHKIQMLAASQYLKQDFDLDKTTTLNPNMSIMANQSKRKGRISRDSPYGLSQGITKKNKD

T2: HIM-3 part of the chimeric protein HIM-3:HTP-3 motif #4 (C. elegans, UniProt G5EBG0 1-276)
T2 sequence (looked up): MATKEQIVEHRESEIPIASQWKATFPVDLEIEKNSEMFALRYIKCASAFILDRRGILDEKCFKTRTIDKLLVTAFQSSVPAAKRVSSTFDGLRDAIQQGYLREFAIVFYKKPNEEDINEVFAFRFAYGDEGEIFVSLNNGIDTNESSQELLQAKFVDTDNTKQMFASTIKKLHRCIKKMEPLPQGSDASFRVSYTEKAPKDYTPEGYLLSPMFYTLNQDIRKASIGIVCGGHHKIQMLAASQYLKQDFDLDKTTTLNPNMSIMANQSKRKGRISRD


How the values were obtained:
HIM-3-6His = target: T1, HIM-3-6His
[1] = target: T2, HIM-3 part of the chimeric protein …; assay: crystal structure

stoichiometry N (HIM-3-6His) | binding result [1] | Binder
1 HTP-2 per HIM-3 | – | HTP-2 (co-expressed; tag not told) (natural protein, C. elegans, UniProt Q95XC8 1-352, looked up) MAPLENNYNESLNKSKDAIDDKTWSKLFPSIVSDPDRSSNFMIRAIYVVFSAVLRQRNILEKEYFSKNYITENLSCMTLSFKNLRAHQIAQLLRAAGDATKDGFLKEISLVVTEHDGDVEAIEVFSMKFIYFENGGVVARLSTDNNDQEDPHFAELAQLRYEGAESVRDQMVTIVRSVQFLCTKVLEPLPAEFTANFRLKYTNDAPSNFRIDGFDDSSTFYTLPDGIQSVTIGHLRPGHHAAHMQCWSKSMSDSYAAELTLKGHLDKVSDMYAFNPVNVLYKSFNSEDTDPGLSQDTTESANDQGGNVTSPVDNITDSLEKTQMSPIKMRPTTRRGADDSKTRSSPYSRSRK
1 HTP-1 per HIM-3 | – | HTP-1 (untagged, co-expressed) (natural protein, C. elegans, UniProt Q20305 1-352, looked up) MAPLETIYDESLNKSADSIDDKKWSKLFPRIVSDPDRSSNFMTRAIYVAFSAVLRNRNILGQEYFTKNYITEKLKCMTLCFRNPRSNQIAQLLRNAGDATKDGFLKEVSLVITNNEGDLEAIEVFSMKFIYFENGGVVARLSTDKNGQEDPHFAKLAQLVYEGGDSVRDQMVTIVRSVQFLCTKVLEPLPEEFTANFRLEYTNDAPSNFRIDGFEDSSTFYTLPDDIQSATIGHLRPGCHAANMECWSMLMSDSYEAELTLKRHLDKVSDRHGFNPVNVLYKSFNSEDSDTSLSQATTESVNDQGGNETSPVDDITESLEKAQMSPIQTRPTTRRGADGSKTRSSPYSRSCK
– | binds | RHYGRVSSILDVAGS (peptide, UniProt O01820 649-663, looked up) [HTP-3 motif #4 (residues 649-663) as placed in the HIM-3 chimera]
